{"source": "patent US20250145697A1", "about": "(WASHINGTON UNIVERSITY, published 2025)", "binders": {"B1": {"name": "HJ151 (antibody, V domains shown)", "VH": "QVQLQQSGAELVRPGASVTLSCKASGYTFTDYEMHWVKQTPVHGLEWIGVIDPEKGGTAYNQKFKGKAILTADKSSSTAYMDLRSLTSEDSAVYYCLKDSWGQGTTLTVSS", "VL": "DVLMTQTPLSLPVSLGDQASISCRSSQTIVHSDGNTYLEWYLQKPGQSPKLLIYKVSNRFSGVPDRFSGSGSGTYFTLKISRVEAEDLGVYYCFQGSHVPCTFGGGTKLEIKR", "notes": "murine monoclonal antibody from hybridoma; also called HJ151B (biotinylated)"}, "B2": {"name": "HJ156 (antibody, V domains shown)", "VH": "QVQLQQSGPELVKPGASVKISCKASGYIFTDYYINWVKRRPGQGLEWIGWIFPGSGVSYYNEQFKGKATLTVDKPSNTAYIFLSRLTSEDSAVYFCARYYSSSPFAYWGQGTLVTVSA", "VL": "B1 VL with T28N, V30I, D33N, Y41F, K44R, K50E, Y75D, C101Y", "notes": "murine monoclonal antibody from hybridoma; also called HJ156B (biotinylated)"}, "B3": {"name": "HJ154 (antibody, V domains shown)", "VH": "QVQLQQPGTEFVMSGASVMLSCKASGYIFTNYWLHWVKQRPGHGLEWIGEIDPSDSYSICNDNFKGKSTLTVDKSSSTAYMQLSSLTSEDSAVYYCAGSLGRVGLAYWGQGTLVTVST", "VL": "QIVLTQSPAIMSASPGEKVTMSCSASSSVSNMYWYQQKPGSSPKSWIYRTSNLASGVPARFSGSGSGTSYSLTISNMEAEDAATYYCQHYQNYPLTFGAGTKLELKR", "notes": "murine monoclonal antibody from hybridoma; also called HJ154B (biotinylated)"}}, "note": "Changes are numbered by the printed parent chain.", "data": [{"target": "T1, recombinant alipidated human ApoE4 (human, UniProt P02649 19-317)", "T1 construct": "mature; full length recombinant protein made in E. coli or bought; biotinylated for SPR; position 112 is counted on the mature protein, not on the precursor entry; also called recApoE; non-lipidated ApoE4", "test": "direct ELISA on coated recombinant alipidated ApoE (0.5 ug/ml)", "method_in_brief": "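Antibody dose-response curves were built by HRP-conjugated goat anti-mouse IgG detection of anti-ApoE antibodies bound to blocked plates. The coat was full-length alipidated recombinant ApoE at 0.5 μg/ml, applied overnight, either E. coli-expressed and purified or commercially sourced.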", "units": {"EC50": "nM"}, "values": [{"binder": "B1", "EC50": 0.44}, {"binder": "B2", "EC50": 0.62}, {"binder": "B3", "EC50": 0.26}]}, {"target": "T2, ApoE4 amino acids 1-210, expressed on yeast (human, UniProt P02649 19-228)", "T2 construct": "with myc tag, on yeast cells; range counts on the mature protein; also called N terminal domain; not shown: myc tag and yeast surface-display partner", "T2 chain": "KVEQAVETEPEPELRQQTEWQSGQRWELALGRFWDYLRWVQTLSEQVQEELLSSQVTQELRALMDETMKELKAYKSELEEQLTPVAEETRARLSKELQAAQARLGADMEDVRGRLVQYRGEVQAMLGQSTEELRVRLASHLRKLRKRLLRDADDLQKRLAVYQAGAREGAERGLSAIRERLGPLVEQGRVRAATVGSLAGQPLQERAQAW", "test": "yeast display of myc-tagged ApoE4 fragment, antibody staining", "procedure": "(§1) Epitope binding of various anti-ApoE antibodies was evaluated multiple ways. Different sequences of human ApoE were expressed on the surface of yeast by yeast display using different plasmids. Different anti-ApoE antibodies were then assessed to determine binding to the different ApoE sequences by immunofluorescence of the yeast cell surface (Table 4). Because none of the anti-ApoE antibodies tested here recognize murine ApoE, the epitope was further narrowed down by comparison of the murine and human ApoE sequences as shown in Tables 4 and 5. DNA constructs containing different regions of ApoE4 with myc tag were transformed into yeast cells. Yeast cells were incubated with HJ15x to detect binding or anti-myc antibody to detect expression.", "values": [{"binder": "B1", "binding result": "binds"}, {"binder": "B2", "binding result": "binds"}, {"binder": "B3", "binding result": "binds"}]}, {"target": "T3, ApoE4 amino acids 54-164, expressed on yeast (human, UniProt P02649 72-182)", "T3 construct": "with myc tag, on yeast cells; expression in yeast printed as Low; range counts on the mature protein; also called helix2 + 3 + 4", "T3 chain": "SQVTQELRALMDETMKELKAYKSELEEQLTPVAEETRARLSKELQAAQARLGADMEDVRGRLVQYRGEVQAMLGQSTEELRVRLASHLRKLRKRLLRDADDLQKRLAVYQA", "test": "yeast display of myc-tagged ApoE4 fragment, antibody staining", "procedure": "as §1", "values": [{"binder": "B1", "binding result": "binds"}, {"binder": "B2", "binding result": "binds"}, {"binder": "B3", "binding result": "binds"}]}, {"target": "T4, ApoE4 amino acids 24-164, expressed on yeast (human, UniProt P02649 42-182)", "T4 construct": "with myc tag, on yeast cells; range counts on the mature protein; also called helix1 + 2 + 3 + 4", "T4 chain": "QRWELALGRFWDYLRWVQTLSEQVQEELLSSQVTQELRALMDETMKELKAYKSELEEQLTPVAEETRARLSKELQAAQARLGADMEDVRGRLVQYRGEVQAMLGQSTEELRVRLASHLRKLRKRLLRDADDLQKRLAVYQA", "test": "yeast display of myc-tagged ApoE4 fragment, antibody staining", "procedure": "as §1", "values": [{"binder": "B1", "binding result": "binds"}, {"binder": "B2", "binding result": "binds"}, {"binder": "B3", "binding result": "binds"}]}, {"target": "T5, ApoE4 amino acids 1-164, expressed on yeast (human, UniProt P02649 19-182)", "T5 construct": "with myc tag, on yeast cells; range counts on the mature protein; also called up to helix 4; not shown: myc tag and yeast surface-display partner", "T5 chain": "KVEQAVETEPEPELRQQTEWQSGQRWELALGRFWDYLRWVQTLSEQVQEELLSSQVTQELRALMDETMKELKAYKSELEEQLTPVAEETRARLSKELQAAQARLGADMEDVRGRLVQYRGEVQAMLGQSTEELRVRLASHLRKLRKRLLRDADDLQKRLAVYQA", "test": "yeast display of myc-tagged ApoE4 fragment, antibody staining", "procedure": "as §1", "values": [{"binder": "B1", "binding result": "binds"}, {"binder": "B2", "binding result": "binds"}, {"binder": "B3", "binding result": "binds"}]}, {"target": "T1, recombinant alipidated human ApoE4", "test": "SPR (Biacore T200), biotinylated ApoE4 captured on anti-biotin mAb chip, antibody injected, 1:1 fit", "method_in_brief": "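Biotinylated recombinant alipidated human ApoE4 (E. coli-expressed or commercial) captured on immobilized anti-biotin mAb; antibody serial dilutions injected at 30 μl/min, e.g. 3-min association, 10-min dissociation. Responses reference-subtracted against irrelevant-IgG flow cell; kinetics from 1:1 Langmuir simultaneous fit of Kon and Koff.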", "units": {"Kd": "nM", "koff": "s⁻¹", "kon": "M⁻¹ s⁻¹"}, "values": [{"binder": "B1", "Kd": 60.2, "koff": 0.00119, "kon": 19700}, {"binder": "B2", "Kd": 216, "koff": 0.00449, "kon": 20700}, {"binder": "B3", "Kd": 0.675, "koff": 0.000348, "kon": 516000}]}, {"target": "T1, recombinant alipidated human ApoE4", "test": "ELISA, plate coated with 0.5 ug/ml recombinant apoE4, HRP goat anti-mouse detection, OD450", "procedure": "ELISA plates were coated with 0.5 μg/ml of recombinant apoE2 (square), apoE3 (open circle), or apoE4 (closed circle). Then different concentrations of (A) HJ151, (B) HJ153, (C) HJ154, or (D) HJ156 were loaded on the plates. Horse-radish peroxidase labeled goat anti-mouse secondary antibodies were used to detect binding. […] HJ151 is specific for ApoE4 and HJ156 binds only ApoE3 and ApoE4. FIG. 5E-H are graphs depicting surface plasmon resonance profiles for various antibodies. Anti-ApoE antibodies were serially diluted 3-fold (starting at 100 nM for HJ153 (E), and 1000 nM for HJ151 (F), and […] (G)) for detection of binding to biotinylated-recombinant apoE4 captured on a streptavidin chip. Samples were injected at a flow rate of 30 μl/minute. (H) Apparent KD values of HJ151, HJ153 and HJ156 were calculated based on the SPR experiment.\nELISA plates were coated with 0.5 μg/ml of recombinant apoE2, apoE3, or apoE4. Then different concentrations of HJ151 (FIG. 5A), HJ153 (FIG. 5B), HJ154 (FIG. 5C), or HJ156 (FIG. 5D) were loaded on the plates. Horse-radish peroxidase labeled goat anti-mouse secondary antibodies were used to detect binding. […] HJ151 is specific for ApoE4 and HJ156 binds only ApoE3 and ApoE4. Surface plasmon resonance profiles for various antibodies was also performed.", "units": {"EC50 (read off the curve)": "nM"}, "values": [{"binder": "B1", "EC50 (read off the curve)": "~0.5"}, {"binder": "B2", "EC50 (read off the curve)": "~1"}, {"binder": "B3", "EC50 (read off the curve)": "~0.3"}]}]}
